Test results taken from the supplement of paper PMC12042874.
± gives the uncertainty stated by the source.

Assay: amyloid nucleation score (Sup35N fusion, yeast selection) (log enrichment); library NNK3; higher = more nucleation; inactive = no reads after selection
In short: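 After 24 hours of induction with 100 μM copper sulfate, psi-negative yeast expressing peptides of 20 random codons fused to Sup35N were grown for 7 days at 30°C on medium lacking adenine and uracil. Input and output plasmid inserts were sequenced with Illumina, and sequences with under 100 input reads were discarded. Scores for nucleation are the DiMSum log enrichment of output over input reads, centred on the mode score of non-aggregating sequences.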

| Substance | amyloid nucleation score |
| --- | --- |
| IETPSGLRKIELFMTCYYTS | 0.431 ± 0.41 |
| YQRYGRGFLRVSSFSLDSRM | -0.352 ± 0.81 |
| LLDFVNGFYCFDFTGTFNIY | 0.993 ± 0.15 |
| MLFYCFYINGRAARTYKRYS | inactive |
| RGINDDSPF | inactive |
| VLTSYGRNRH | inactive |
| KGLVLAYILSRSVFERFKGG | inactive |
| KFVQSIIGHWNLGHMPCGSM | 0.587 ± 0.17 |
| ETLYSCQKGGQRQRKAG | inactive |
| VSEFFFP | inactive |
| AIEQSLDWF | inactive |
| SIMYFVTNGCGNGC | 1.79 ± 0.086 |
| ESFVGEGDRSWSGHGNFITV | inactive |
| VYCLSHNCMITSDNVRSIIF | inactive |
| NFNYNQQLSVLLLVFGWTWR | 1.83 ± 0.075 |
| LHGWFLNLLIFYAMRLRSVL | inactive |
| ETYWQINSTECKFTSFQRLF | inactive |
| GIMVSWIVGFMLCSILRMGD | inactive |
| IVYILRFRTSMLC | inactive |
| FFFYFLRFSDFNWFINWLIS | inactive |
| PDRMIGGLSFRKFDISCPYA | inactive |
| RRYVSSDFFLSAWWTVS | inactive |
| PNGSYAKQLLVSIL | inactive |
| CFLCFTPHSFHVCSI | inactive |

| Substance | amyloid nucleation score |
| --- | --- |
| ILVLTKRVCYGSLFRYAWAK | inactive |
| TRWGFVCNKTHVLGDMSIGM | inactive |
| SWGNHYLRGLICYFLLFTDT | inactive |
| MSGALFMGLGTGRSRVTRNL | inactive |
| LRCTVRSLAKFVFYRFKTGG | inactive |
| IDLVLFSTCVNALVVESFGG | inactive |
| SLNCDGSSDGRCAAYQIWLC | inactive |
| FPSVIINLGISFFLSSELIV | 1.08 ± 0.11 |
| SSVSFQLEVCNQNVLYGIKI | inactive |
| MNFMLTLFLWGM | inactive |
| TSCFYFAMVFEQVDWDSVHT | 1.58 ± 0.11 |
| GFFFSLFYWNHFRGMTRQRF | 0.973 ± 0.2 |
| TVSGQLIT | inactive |
| DFYGCGFTFTRSFFRQWFIG | 1.09 ± 0.11 |
| DRAFYYTLKYLRD | inactive |
| ARIDCGSVELKECDLRPDYG | inactive |
| MGRAWTIQAGNVMCRVVGKH | -0.283 ± 0.58 |
| VLSFLPCGLIPIISVALWCC | 1.17 ± 0.099 |
| GVSLATSYKMLLGVIVLGME | 0.697 ± 0.18 |
| VVQRMG | -0.048 ± 1.1 |
| KPVKTWNYLFWMCL | 2.49 ± 0.072 |
| FFISDVGETC | inactive |
| TLRGMGQHRQR | inactive |
| WLQGCRSRWAVVL | inactive |

| Substance | amyloid nucleation score |
| --- | --- |
| SLMDNVLSFHFVVANWNTLD | inactive |
| NWFCRGVIELPHPYAQTNFS | inactive |
| VISVTRSYSHTYK | inactive |
| RGLVLVFVREAYRREY | 0.598 ± 0.29 |
| EVHLSINEINLYVIEDEGSL | 0.013 ± 0.32 |
| IVVNR | inactive |
| VSTWVQTPGTHMLGVIVYFE | inactive |
| RFKMAYFKNTAYLFNNANSV | inactive |
| VCRRTGSKITFGQWKVYFSS | inactive |
| DFEVSMGQR | -0.015 ± 0.8 |
| YTSGRSVSGRCHLWELKAIK | inactive |
| ILPSYDLFEVVWLVRAD | inactive |
| NVQQALIHVSAHGCRFFLTC | 2.71 ± 0.065 |
| FFWVMISGVFLRRIHDSRSA | inactive |
| VSNHSIDIGRLRLGFTC | inactive |
| VRIMCMSWIVVWHYMC | inactive |
| LYMYLGRVCMWHLRCHKRYN | inactive |
| GRNKSLYGIGLVRYVMLVSE | inactive |
| ECLKVRW | inactive |
| FIVVVTYARWHSRYVSGWVS | inactive |
| RHGLCFTIEAVPPPFIRWHW | -0.662 ± 1.3 |
| KPMGYYLFDVTTELYDNDWF | inactive |
| LEFVY | 0.238 ± 0.52 |
| KFIWYIDDCWWCTTICSSGG | inactive |

| Substance | amyloid nucleation score |
| --- | --- |
| FRPLFSESHYPASLTGTGHN | inactive |
| GMAVVLSLAPAGRKRTTTNV | inactive |
| RGSWSYQILWINTVRW | -0.347 ± 0.53 |
| FNALSWSVDFLWYARTTCVD | inactive |
| GSMVVEFMYYHPTPTRGAWA | 0.8 ± 0.17 |
| YVSLVSLCMCIRLQGEFLYG | 1.24 ± 0.089 |
| VEIGCANSRWDLLGVVCCLG | 1.27 ± 0.17 |
| VDSDHIIHSTVLISVLGELD | inactive |
| SLLCNHFPGHI | inactive |
| HDNRDDRIVFFARLDHSRRS | 0.626 ± 0.34 |
| QICRGCRYVNVYYVPLSLDL | 1.32 ± 0.095 |
| VRNEYACNCTYMRIARLDE | 0.319 ± 0.29 |
| NWVQKRPGQRHFNIASNCV | inactive |
| AFSKRSSWNNHFICVNDVVQ | inactive |
| KVSDKPHHKRGVGLDLMMMD | inactive |
| SLYRSEVMVHAVVVYVYFGK | inactive |
| IVDHNIMI | 0.718 ± 0.3 |
| YQERL | inactive |
| FRVTY | inactive |
| QYFVP | inactive |
| KESVYPTWHMRWFVYCELVL | inactive |
| LDLSSYVHSTLEPGQWKRSR | inactive |
| GYNFNEENINMLHQREFSLS | inactive |
| YSEFPPTSKQ | inactive |

| Substance | amyloid nucleation score |
| --- | --- |
| LNQLGSCY | -0.019 ± 1.1 |
| RSHPKCHSSLLHSWK | inactive |
| KDSYMSCYKPRYVLPRRIIQ | inactive |
| TFYVLRPTYSITRNGAPRPL | inactive |
| YLRHIVFNRQDYMSTRLCKH | inactive |
| DDYYFG | inactive |
| ATCWDEYDPRDPLA | inactive |
| GRGSKLVCVR | 2.63 ± 0.071 |
| IDCLFRLAGYWSALWTFVLF | inactive |
| FQYKVSFPDRRASQKRWPLP | inactive |
| LNYTEASYSLTGHTISISTV | -0.156 ± 1.5 |
| SPDTVPIGGSSGTNVYLCMH | inactive |
| DCVRVRVLKSGTYLLYRSEA | inactive |
| DMYPFPVCR | inactive |
| FTAQRGSTCHPYVRKHEYI | inactive |
| HQIQLVATHPTEILHAGTSN | inactive |
| LRFAYTFFWYVRFRVRICFN | inactive |
| SLNLEENLSFHGVCRMYFNE | inactive |
| LQNVGD | inactive |
| YASWKLRTN | inactive |
| CLSLLNFDVCVMRSVVRVFA | inactive |
| NYSFWLAIYSPCRSKCYARC | 1.58 ± 0.057 |
